Assay: soluble on expression in E. coli; label from the status in PepcDB or PDB records

Sequence	soluble on expression in E. coli
MSLDEVIIGVCWPFSVNRDGMADGLHLALDEINTRRLAGPYTIRLVERDDEFDSKKHKNIAREFADRADMSAVLGYYDDGPSIRASSIYESSRLLHLMIGANNTDMTSHGFNYINRTILSSDRIALKLAKLTTDLGYRKIVVLWEEDAYGEDLAYQYQVGLDQLNAQVVYQWSYSRKNVDFRLLVNDLKIVDADMIFFSGLEPIAGDFLRMARKVGLKTPVIGAFSNTPEMRAHAGAVGFEGAIMFDFYNPCSQTPENRLFVNKFFSRYGRYPDAWAAQSYDALHILAKAIKFTGSRNPLDLSYAIRYADAFNGANGRYKFDRAGNLEDKPIYLYKIQNGVPVLLEEGHHHHHH	soluble
MSLDFAMLPPEVNSTRMYSGPGAGSLWAAAAAWDQVSAELQSAAETYRSVIASLTGWQWLGPSSVRMGAAVTPYVEWLTTTAAQARQTATQITAAATGFEQAFAMTVPPPAIMANRAQVLSLIATNFFGQNTAAIAALETQYAEMWEQDATAMYDYAATSAAARTLTPFTSPQQDTNSAGLPAQSAEVSRATANAGAADGNWLGNLLEEIGILLLPIAPELTPFFLEAGEIVNAIPFPSIVGDEFCLLDGLLAWYATIGSINNINSMGTGIIGAEKNLGILPELGSAAAAAAPPPADIAPAFLAPLTSMAKSLSDGALRGPGEVSAAMRGAGTIGQMSVPPAWKAPAVTTVRAFDATPMTTLPGGDAPAAGVPGLPGMPASGAGRAGVVPRYGVRLTVMTRPLSGEGHHHHHH	soluble
MSLDFNTLAQNFTQFYYNQFDTDRSQLGNLYRNESMLTFETSQLQGAKDIVEKLVSLPFQKVQHRITTLDAQPASPYGDVLVMITGDLLIDEEQNPQRFSQVFHLIPDGNSYYVFNDIFRLNYSA	soluble
MSLDFSIPEEYMMLKESMREFVKRELMPLEKTLLERELSLWTEPGHLIPDEDHKRLMQKTKELGFWGLEVDEEFGGQGLGMLAKTLVVEELSKSLVGFSNHGFTLPPDAPNLYYLHECCGPRQREKYFVPYCNGDVDSAMACTEPGAGSDVSGLKTKAVKKGDKWVINGTKSFISKCDYDNVFFIVIAVTDPSASTKDRFTAFLIDREHPGVRIGKEIPVIGPMPTWDLILEDVEVDDDAILGDVGKAFIPLQNRFGVRRIELASSCTGMAERLIQMMIDQANTRITFGQPLAERGTIQNWIADSTMELEQVRWLLYYAAWKSDQGHKDLRIEGASVKVAATEMLTRVADRAIQIHGGLGVSHELGIEYVARHVRLWRIVEGPSEVHRWLVARQLLKEGHHHHHH	not soluble
MSLDGKVAVLTGTKKIEVKKLPVPEINDDEMLVKVEGCGVCGTDVFEYKSDPFNYIPVNLGHEGTGEIVKMGKNVKNDWTGKTLKIGDKIVCGPAANGDIYGLMGGEKHYFNGWLANYMVINPNSVVFNVSDMPLDLRILIEPAAVSCHAVAKSKEIYTFKHSSSVVVQGVGPIGLMVIAQMKTLGVRHIIAVDGNASRLELAKKIGATATVNIDDGDSVAAVKELTDGKGANFVFQCTGSTKGASTAWKFLTDHGGICEVGFFVDNGEATYNPHFDVCMPETKITGSWAYVPEDWVEATEFLRETKDEGLDMTQLITNVYPLDQMNEAMAKNMSGTGVKIVYKNNEGHHHHHH	soluble
MSLDLGSNSFHMVIARVVDGAMQIIGRLKQRVHLADGLGPDNMLSEEAMTRGLNCLSLFAERLQGFSPASVCIVGTHTLRQALNATDFLKRAEKVIPYPIEIISGNEEARLIFMGVEHTQPEKGRKLVIDIGGGSTELVIGENFEPILVESRRMGCVSFAQLYFPGGVINKENFQRARMAAAQKLETLTWQFRIQGWNVAMGASGTIKAAHEVLMEMGEKDGIITPERLEKLVKEVLRHRNFASLSLPGLSEERKTVFVPGLAILCGVFDALAIRELRLSDGALREGVLYEMEGRFRHQDVRSRTASSLANQYHIDSEQARRVLDTTMQMYEQWREQQPKLAHPQLEALLRWAAMLHEVGLNINHSGLHRHSAYILQNSDLPGFNQEQQLMMATLVRYHRKAIKLDDLPRFTLFKKKQFLPLIQLLRLGVLLNNQRQATTTPPTLTLITDDSHWTLRFPHDWFSQNALVLLDLEKEQEYWEGVAGWRLKIEEESTPEIAAEGHHHHHH	not soluble
MSLDLHTHTIYSDGIGSVIDNVNMAEIRGLRLLGISDHIHFFTPSKFLKYVNEVRSIGREAEIPVLVGIEANITENGPDVTEDFAKHLDYVIASVHDWFGEGEVYRYIERIKLALMDENVTIIGHFGNVFPWIGYPTEEQIKEVLDVAEEYGKAFEISSRYRVPDLEFVKMCIKRGIKLVFASDAHRPEDVGRVDWSIKVFEKAGGKKEDLLFSEEGHHHHHH	soluble
MSLDLKEIVQAGAFDLHIHTTASDGEYSPTAIVKKAKEIGLRTIAITDHDTLDGIEEAVIAGKRHGINVIPAIELTTKYKGTNVDILGYNVKASEKLQAILVQLKKHREGRAMQIIEKFNDIGFTITLDEVKQFSEDGVIARPHIAKAIVKKGYVLDYQTVFDEYLADGKPCAIDKMILTPEEGIKLIHEAGGKAILAHPVYLEDTLVRELLALDFDGIEVWHRNHDETDQEKYKMLATEFALIKTGGSDFHTDEHSLGQFGWKADEEGHHHHHH	soluble
MSLDLLISNCTVFGREGSDAIGINEGRIAFIGIDRDLRAKKRIDLSGKIVFPGFIDSHAHLLSTGLEDIRLNLYHTKSKEEVVERIAEYSKGKEKVIAYRWDESMWKPQSSYLTSSDINGIPVPVVAFRRDGHMAVANQKAMDVIGTTRKEGIFKEDDIELLEPLVKPNEAEIRDALNTAANRAISLGIVAVRDMVDISTYNEYKNIKTPLKIYKVLYSDSIFDKFGTSSQNDWGIKAFLDGSLGSRTAAHKGWDASNLKMDESKFENFAKQIWMHNLPLAVHAIGEVAVETAAKVFYRNAGRNRNSIEHFELVDDDVLDYITKTTIISSQPNFLEWAGKGGMYEDRVGGEWLYKNNPFRWMIDRGIHLAFGSDSMPIGPMYGIYYAVNSEYQRQKITLEEAVRCYSEGGSYLLGTEGYMGMLRVGYSADMAVFDEKLLKDLRGIKAAKPEITIINGKIYTNEGHHHHHH	not soluble
MSLDLMTKLKIYNGEEIVEKASIKKIEREELEEECRQKEGMTGVSTRFIIKAINNAICESNCSCINPIDVINSLITAVKEKDLCEEVEDKYISFLEDVVRKEYNKILYKEITKFFIESFNSQGEALFNNYLDHAEAYVNKVYLKDNITGENLDPDEEFMREIEEEIGVTENSSKGFRKDVVAYILYLIRKGEEINCNCYKPLKEAIERKLISSSREISRIINPSKIRNKAQDEKYKFIVEKLKNNGYCDTCAFYTLRYAANNFWRDEGHHHHHH	not soluble
MSLDLSVDRSSPVPLYFQLSQQLEAAIEHGALTPGSLLGNEIELAARLGLSRPTVRQAIQSLVDKGLLVRRRGVGTQVVHSKVRRPLELSSLYDDLEAAGQRPATKVLVNTVVPATAEIAAALGVAEDSEVHRIERLRLTHGEPMAYLCNYLPPGLVDLDTGQLEATGLYRLMRAAGITLHSARQSIGARAATSGEAERLGEDAGAPLLTMERTTFDDTGRAVEFGTHTYRPSRYSFEFQLLVRP	soluble
MSLDNKGDIWYDLISAVHKSIRGSDPDAALYWAARMISAGCDPLYIARRLLAIASEDVGNADPRGMQVALAAWDCFTRVGPAEGERAIAQAIVYLACAPKSNAVYTAWKQALSDAHNLPEFEVPPHLRNAPTRLMKDLGYGEEYRYAHDEPGAYAAGECYFPPEMSGTRYYQPTPRGLETKIAEKLAYLADLNAKSPQKEGHHHHHH	soluble
MSLDQVDKALTPKEKAETGVPFYASNQAGIITAQQTYCYIASFDIQTESRQILQDLFVKWTKFADLTTSGGVLRDVDNDMLPPNDTGEADGLGISNFTVTLGYGPTFFEKDGKDRFGVKAKKPKYLEKIPHMAHDSLDEAYSDGDLCIQVCADDQQVAFHGIRNFIRLASGVAVVRWIEEGFLSAPKNETPRNLFGFKDGTANVDHDSNKGYKDVVWAEKDEPEWMRNGSYLGYRKIQMLIEIWDRSSLLDQEDTFGRKKASGAPYHKKHEHDKVDPSKLPADSHVRLAKDTKQQMHRRAYSYTNGIDKSTGTIDAGLLFICFTQNPAKQFLPMLSIMGKMDKLNEYTVPIGSAMFACQGGLAPGEIFGEKLLEGHHHHHH	soluble
MSLDRIKEYLQDKGKVTVNDLAQALGKDSSKDFRELIKTLSLMERKHQIRFEEDGSLTLEAKKKHEITLKGIFHAHKNGFGFVSLEGEEDDLFVGKNDVNYAIDGDTVEVVIKKVADRNKGTAAEAKIIDILEHSLTTVVGQIVLDQEKPKYAGYIRSKNQKISQPIYVKKSALKLEGTEVLKVFIDKYPSKKHDFFVASVLDVVGHSTDVGIDVLEVLESMDIVSEFPEAVVKEAESVPDAPSQKDMEGRLDLRDEITFTIDGADAKDLDDAVHIKALKNGNLELGVHIADVSYYVTEGSALDKEALNRATSVYVTDRVVPMLPERLSNGICSLNPQVDRLTQSAIMEIDKHGRVVNYTITQTVIKTSFRMTYSDVNDILAGDEEKRKEYHKIVSSIELMAKLHETLENMRVKRGALNFDTNEAKILVDKQGKPVDIVLRQRGIAERMIESFMLMANETVAEHFSKLDLPFIYRIHEEPKAEKVQKFIDYASSFGLRIYGTASEISQEALQDIMRAVEGEPYADVLSMMLLRSMQQARYSEHNHGHYGLAADYYTHFTSPIRRYPDLLVHRMIRDYGRSKEIAEHFEQVIPEIATQSSNRERRAIEAEREVEAMKKAEYMEEYVGEEYDAVVSSIVKFGLFVELPNTVEGLIHITNLPEFYHFNERDLTLRGEKSGITFRVGQQIRIRVERADKMTGEIDFSFVPSEFDVIEKGLKQSSRSGRGRGSNRRSDKKEDKRKSGRSNDKRKHSQKDKKKKGKKPFYKEVAKKGAKHGKGRGKGRRTKEGHHHHHH	not soluble
MSLDSPTASSNGDLIEEIQASSTSTDPRTFTGLSIVEDIGDVVPVTDNASPALPVSLTDADGNDVVVEDVSRILPLDLYGTYSKTIAGLGLVDNIVGRTVSSTEPALADTEVVTTGGHTLNAEAILNLHPTLVIIDHSIGPREVIDQIRAAGVATVIMSPQRSIASIGDDIRDIASVVGLPEEGEKLAERSVAEVEEASTVVDELTPEDPLKMVFLYARGTGGVFFILGDAYGGRDLIEGLGGVDMAAEKGIMDLAPANAEALAELNPDVFVMMSEGLVSTGGIDGLMERPGIAQTTAGQNQRVLALPDGQSLAFGAQTGELLLRASRELYVQGGEGHHHHHH	soluble
MSLDSRKPGHRPVTMRDVAKAAGVSRMTVSRALKKDSPISSETRERILKVVKDMNYVPDQVAGSLTTKRSGFVGLLLPSLNNLHFAQTAQSLTDVLEQGGLQLLLGYTAYSPEREEQLVETMLRRRPEAMVLSYDGHTEQTIRLLQRASIPIVEIWEKPAHPIGHTVGFSNERAAYDMTNALLARGFRKIVFLGEKDDDWTRGAARRAGFKRAMREAGLNPDQEIRLGAPPLSIEDGVAAAELILQEYPDTDCIFCVSDMPAFGLLSRLKSIGVAVPEQVSVVGFGNFEVSRFASPEISTVRVDPIAIGRETGSLILRLLDPKQRSPQTAQHITLPPVLEFRPSLKNEGHHHHHH	soluble
MSLDTIKVGFNIPLTGDIPKVGESSKFAAEILKGEINAAGGLKVGDKTYQLEFIYEDNESKAESATATALKLITQDGVLAIIGPQSSKQAIPAGQVCNDNKTPMISPWSTNPKTTENRPYVFRACFLDPFQGPVAAKFVTEEFKAKKAAVLYDIASDYPKGLAEFFKDAFEKIHGPGSVVAFETFTTKDKDFSAQLTKIVASGADVLFTPQYYDEVPLIVKQAQELGWKKPIMGSDSWGSAELMKLCGDACKGYCFSTHYAAAGAKGATKEFIDKYNTKYGYVPDDVAALTWDAINLLFTAVKNTGGLSGNLDKDRDAIKDKLTQVKDFEGITGKMTFAPGGNPTKCAVVVKISDKGEFEFFKSEGHHHHHH	soluble

— the DeepSol protein solubility set
